# In patent publication US20220112276A1 (Janssen / Centocor, published 2022):
# B1: 01E01R3LS His-tagged VHH (VHH)
# VHH: QVQLVESGGGLVQAGGSLRLSCAASGRSFSSYNMGWFRQAPGKERDLVAVVTWSGGGTSYADSVKGRFTIARDNANARLYLEMTSLKPEDTAIYYCAATQDWYGGTRAFRAASFHSWGQGTQVTVSS
# B2: 01H03R2L His-tagged VHH (VHH)
# VHH: EVQLVESGGGLVRAGGSLRLSCAASGRSFSSYNMGWFRQAPGKERDLVAVVTWSGGGTSYADSVKGRFTISRDNANARLYLEMTSLKPEDTAIYYCAATQDWYGGTRAFHAASFHSWGQGTLVTVSS
# B3: 01D04R3LS His-tagged VHH (VHH)
# VHH: EVQLVESGGGLVQAGGSLRLSCAASGRTFRSYAMGWFRQAPGKEREFVADISWRGGRLYYADSVKGRFTISRDNAKNTVYLQMNSLKPEDTAVYYCAATGDQPAFTTAQGMGAMLEYDYWGQGTLVTVSS
# B4: 01D09R3 His-tagged VHH (VHH)
# VHH: QVQLVESGGGLVQAGGSLRLSCAASGRTFSVYAMGWFRQAPGKERQFVAAITWSGGSTSYADSVKGRFTISRDNAKNTVYLQMNILKPEDTAVYYCAAATNPYFSDYYPDLKYEFDYWGQGTLVTVSS
# B5: 01C02R2 His-tagged VHH (VHH)
# VHH: EVQLVESGGGLVQAGGSLRLSCAASGRSYAMGWFRQAPGKEREFAAAISWSGSRTYYADAVKGRFTISRDNAKNTVYLQMNSLKPEDTAVYYCAADPDGTVVASSGWTNSYEYGYWGQGTLVTVSS
# B6: 01C03R3LS His-tagged VHH (VHH)
# VHH: EVQLVESGGGLVQPGGSLRLSCVASGLPGSSSRMAWFAQAPGKEREFVAAIAWRGRTSYKYYSDSVKGRFTVSGDNAKRTLDLQMKDLNPEDTALYFCAAHPNDDGDPRISGNYQYWGQGTQVTVSS
# B7: 01G07R2L His-tagged VHH (VHH)
# VHH: QVQLVESGGGLVQPGGSLRLSCVASGLPFSSSRMAWFAQAPGKEREFVAAIGWRGRTSYKYYADSVKGRFTVSGDNAKKTLDLQMKDLKPEDTALYFCAAHPNDDGDPRISGNYQYWGQGTQVTVSS
# B8: 01D02R3LS His-tagged VHH (VHH)
# VHH: QVQLVESGGGLVQAGDSLTLSCAASGRSVGFDTYGMAWFRQAPGKEREFVASIAYNGETTSYADSVQGRFTVTRENAKNTIALRMNGLKPDDTAVYYCAAAQYYLTGTSFPAKFWGQGTLVTVSS
# B9: 01A04R3LS His-tagged VHH (VHH)
# VHH: QVQLVESGGGSVQPGGSLRLSCAASGIDVSISTIMWYRQPPGRQRELVADVIPSGRSTTYTESVKGRFTVTRDNAKNTVYLQMSGLKPEDTAVYYCNAFVRRENYWGQGTQVTVSS
# B10: 01D01R3 His-tagged VHH (VHH)
# VHH: EVQLVESGGGLVQAGGSLRLSCAASGRTFSVYGMGWFRQAPGQERAFVAAISWSDGSTYYADSVKGRFTISRDNAKNTMYLQMNSLKPEDTAVYFCAADLTGWGLDADVSEYDYWGQGTQVTVSS
# B11: 02B11R3 His-tagged VHH (VHH)
# VHH: EVQLVESGGGLVQAGGSLRLSCAASGRTFSPYGMGWFRQTPGKERAFVAAVDWNDGSTYYSDSVKGRFTISRDNAKNTVYLQMNSLKSEDTAVYYCAADLTGWGLDADVSEYDYWGQGTLVTVSS
# B12: 01G04R3 His-tagged VHH (VHH)
# VHH: QVQLVESGGGLVQAGGSLRLSCAASGRTFSVYGMGWFRQAPGQERAFVAAISWSDGSTYYADSVKGRFTISRDNAKNTMYLQMNSLKPEDTAVYFCAADLTGWGLDADVSEYDYWGQGTQVTVSS
# B13: 01E03R2 His-tagged VHH (VHH)
# VHH: EVQLVESGGGLVQAGGSLRLSCAASGRTFSVYGMGWFRQAPGQERAFVAAISWSDGSTYYADSVKGRFTISRDNAKNTMYLQMNSLKPEDTAVYFCAADLTGWGLDADVSEYDYWGQGTLVTVSS
# B14: 01E02R3LS His-tagged VHH (VHH)
# VHH: EVQLVESGGGLVETGGSLRLSCAASGRTESTYTMAWFRQAPGKERERVATISFSGSTTTYLASVQGRFTISRDGAKNTIFLQMNGLKPEDTAVYYCALDTRRRVGSSPRFYDYWGQGTLVTVSS
# B15: 01C03R3 His-tagged VHH (VHH)
# VHH: QVQLVESGGGLVQAGGSLRLSCAASGRTFSSYAMGWFRQAPGKEREFVAAIHWNGASTYRYSADSVKGRFTISRDNAKNTVYLQMNSLKPEDTAAYYCAASPPPTVGDVRDPANYDSWGQGTLVTVSS
# B16: 01B12R2 His-tagged VHH (VHH)
# VHH: EVQLVESGGGLVQAGGSLRLSCAASGRTFSSGIMGWFRQAPGKEREFVAAIEWSGGNTYKYYAESVKGRFAISRDNAKTTAYLQMGSLNPEDTALYYCAADESPSRYIDLRRPAPYHYWGQGTLVTVSS
# B17: 01G09R2 His-tagged VHH (VHH)
# VHH: EVQLVESGGGLVQAGGSLRLSCAASGRTINTYVMGWFRQAPGKEREFVARIDWSGSSTDYADSAKGRFTISRDNAKNTVYLQMNSLKPEDTAVYYCAGSAYYSGYVTHRDFGSWGQGTLVTVSS
# B18: 01H11R3LS His-tagged VHH (VHH)
# VHH: QVQLVESGGGLVQAGGSLRLSCAASGRTINGYVMGWFRQAPGKEREFVARIDWSGSSTDYADSVKGRFTISRDNAKTTVYLQTNSLKPEDTAVYYCAGSAYYSGYVTHRDFGSWGQGTQVTVSS
# B19: 01G10R3LS His-tagged VHH (VHH)
# VHH: EVQLVESGGGLVQAGGSLRLSCAASGRTINTYVTGWFRQAPGKEREFVARIDWSGSSTDYADSVKGRFTISRDNAKNTVYLQMNSLKPEDTAVYYCAGSAYYSGYVTHRDFGSWGQGTQVTVSS
# B20: 01C03R2L His-tagged VHH (VHH)
# VHH: EVQLVESGGGLVQAGGSLRLSCAASGRTLRSYIVGWFRQAPGKEREFVAAVTWSDGRRVTADPVKGRFTISRDNAKNTVYLQMDSLKPEDAAVYYCAVSHGGAYVESRAYEYWGQGTQVTVSS
# B21: 01E03R3 His-tagged VHH (VHH)
# VHH: QVQLVESGGGLVQTGGSLRLSCAASGRTFSVYRVGWFRQAPGKEREFVAAVIWSGASTYKYAADSVKGRFTISRDNAENTVYLQMNSLKPEDTAVYYCAADPLGLPGPDVRVEGGYRHWGQGTLVTVSS
# B22: 01C02R3 His-tagged VHH (VHH)
# VHH: QVQLVESGGGLVQAGGSLRLSCAASGLSFSSYTMGWFRQVPGKERELISAIHWSGGPTFYSNSVKGRFTISRDNAKDTVYLQMNSLKPEDTAVYYCTAEPVGSMISPDWTYWGQGTLVTVSS
# B23: 01C11R2 His-tagged VHH (VHH)
# VHH: EVQLVESGGGLVQTGGSLRLSCAASGRTFSTYRMGWFRQAPGKEREFVAAISWSTGSTYYADSVKGRFAISRDNAKNTIYLQMNSLKPEDTAVYYCAAGMVATTRSSAYPYWGQGTQVTVSS
# B24: 01C12R2 His-tagged VHH (VHH)
# VHH: EVQLVESGGGLVQAGGSLRLSCAASGRTFGSYSMGWFRQAPGKEREFVGAISWSGSSTYKYYEDSVKGRFTISRDNAKNTVPLQMNSLKPEDTGVYFCGGTMERRDPRRTSAYDYWGQGTLVTVSS
# Target: T1, recombinant human pIgR (hpIgR) (human, UniProt P01833 19-638, limits assumed)
# T1 construct: probably the ECD
# Assay: ELISA, periplasmic VHH, BSA subtracted
# Description: Initial Library Screening: After each panning round showing enrichment, 94 individual clones were expressed and tested in an off-phage initial screen for specific binding to mpIgR or hpIgR (respectively depending on the antigen used). Screening of monoclones in an off-phage format was performed by transforming the phagemid pool into a non-amber-suppressor strain of E. coli and picking random colonies. The VHH proteins were recovered in the periplasmic fraction by performing osmotic shock. Periplasmic fractions containing His-tagged nanobodies were tested for binding to hpIgR or mpIgR. Bound nanobody was detected with a polyclonal anti-alpaca VHH domain antibody. Each clone was also tested for non-specific binding to BSA in parallel. The ELISA values obtained on BSA were subtracted from the ELISA values obtained on the respective pIgR antigen.
# Repeat Testing of Positive Hits: The hits identified in the initial screen of the phage pools were re-tested for binding to either hpIgR or mpIgR. Periplasmic fractions were prepared again by performing osmotic shock. Periplasmic fractions containing His-tagged nanobodies were tested for binding to mpIgR. In this assay, bound nanobody was detected with an anti-VHH antibody. Each clone was also tested for non-specific binding to BSA in parallel. The ELISA values obtained on BSA were subtracted from the ELISA values obtained on the respective pIgR antigen.
# T1 sequence (P01833 19-638 limits assumed): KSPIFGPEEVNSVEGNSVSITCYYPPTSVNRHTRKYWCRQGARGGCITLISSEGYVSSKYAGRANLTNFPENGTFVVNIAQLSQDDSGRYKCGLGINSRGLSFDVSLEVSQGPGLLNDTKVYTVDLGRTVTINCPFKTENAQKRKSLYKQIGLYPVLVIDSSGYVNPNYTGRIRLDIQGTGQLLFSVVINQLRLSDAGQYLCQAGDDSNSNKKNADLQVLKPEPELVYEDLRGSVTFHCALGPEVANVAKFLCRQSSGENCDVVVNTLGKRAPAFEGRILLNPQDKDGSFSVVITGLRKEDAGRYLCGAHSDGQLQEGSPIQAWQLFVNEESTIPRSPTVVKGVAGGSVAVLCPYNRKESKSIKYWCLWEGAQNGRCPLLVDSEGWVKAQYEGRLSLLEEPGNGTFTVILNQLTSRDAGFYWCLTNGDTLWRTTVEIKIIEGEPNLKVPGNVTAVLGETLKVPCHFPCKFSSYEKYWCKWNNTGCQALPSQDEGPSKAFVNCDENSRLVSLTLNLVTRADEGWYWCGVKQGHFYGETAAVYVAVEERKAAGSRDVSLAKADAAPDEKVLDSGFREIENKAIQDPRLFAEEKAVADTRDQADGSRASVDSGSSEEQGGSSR
row,Binder,ELISA (OD)
1,B1,2.2
2,B2,2.18
3,B3,2.06
4,B4,0.55
5,B5,2.26
6,B6,2.11
7,B7,1.54
8,B8,2.45
9,B9,2.15
10,B10,1.95
11,B11,1.35
12,B12,0.73
13,B13,2.13
14,B14,1.69
15,B15,0.56
16,B16,1.78
17,B17,2
18,B18,0.99
19,B19,1.96
20,B20,2.37
21,B21,1.07
22,B22,1.8
23,B23,1.3
24,B24,1.85
